Results reported in the supplement of paper PMC5998384.

Experiments:
HeLa Kyoto [1] = test: solubility in G1/S (NP-40 vs SDS abundance) (log2 ratio); higher = more soluble; conditions: cell cycle stage: G1/S
HeLa Kyoto [2] = test: thermal stability score vs G1/S (z-score of summed log2 fold changes over temperatures); higher = more thermally stable than in G1/S
HeLa Kyoto [3] = test: melting temperature (median over replicates), in situ; higher = more thermally stable
HeLa Kyoto [4] = test: solubility change mitosis vs G1/S (difference of NP-40 vs SDS log2 ratios) (log2 ratio difference); higher = more soluble in mitosis
[5] = cell cycle stage: early G1 (4.5 h after nocodazole release)
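For melting temperature (median over replicates), in situ in this document: HeLa Kyoto cells synchronized by double thymidine or nocodazole block, proteins quantified by TMT10plex mass spectrometry, three independent biological replicates.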
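For solubility change mitosis vs G1/S (difference of NP-40 vs SDS log2 ratios) in this document: synchronized HeLa Kyoto cells (double thymidine block for G1/S, nocodazole release for mitosis), protein amounts in NP-40 versus SDS lysates quantified by mass spectrometry, three biological replicates.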
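For solubility in G1/S (NP-40 vs SDS abundance) in this document: HeLa Kyoto cells arrested at G1/S by double thymidine block, proteins quantified by TMT10plex mass spectrometry in mild NP-40 versus SDS extracts, three biological replicates.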
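For thermal stability score vs G1/S (z-score of summed log2 fold changes over temperatures) in this document: synchronized HeLa Kyoto cells, proteins quantified by TMT10plex mass spectrometry, three biological replicates, mitosis taken 0.5 h after nocodazole release, G1/S directly after double thymidine block.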

MEIPGSLCKKVKLSNNAQNWGMQRATNVTYQAHHVSRNKRGQVVGTRGGFRGCTVWLTGLSGAGKTTVSMALEEYLVCHGIPCYTLDGDNIRQGLNKNLGFSPEDREENVRRIAEVAKLFADAGLVCITSFISPYTQDRNNARQIHEGASLPFFEVFVDAPLHVCEQRDVKGLYKKARAGEIKGFTGIDSEYEKPEAPELVLKTDSCDVNDCVQQVVELLQERDIVPVDASYEVKELYVPENKLHLAKTDAETLPALKINKVDMQWVQVLAEGWATPLNGFMREREYLQCLHFDCLLDGGVINLSVPIVLTATHEDKERLDGCTAFALMYEGRRVAILRNPEFFEHRKEERCARQWGTTCKNHPYIKMVMEQGDWLIGGDLQVLDRVYWNDGLDQYRLTPTELKQKFKDMNADAVFAFQLRNPVHNGHALLMQDTHKQLLERGYRRPVLLLHPLGGWTKDDDVPLMWRMKQHAAVLEEGVLNPETTVVAIFPSPMMYAGPTEVQWHCRARMVAGANFYIVGRDPAGMPHPETGKDLYEPSHGAKVLTMAPGLITLEIVPFRVAAYNKKKKRMDYYDSEHHEDFEFISGTRMRKLAREGQKPPEGFMAPKAWTVLTEYYKSLEKA [PAPSS1]
solubility in G1/S (log2) (HeLa Kyoto [1]): 0.104 | thermal stability score (HeLa Kyoto [2]; [5]): 0.0766 | thermal stability score (HeLa Kyoto [2]; cell cycle stage: mitosis): -0.551 | melting temperature (HeLa Kyoto [3]; cell cycle stage: G1/S): 53.6 °C | melting temperature (HeLa Kyoto [3]; cell cycle stage: mitosis): 53.8 °C | solubility change mitosis (log2) (HeLa Kyoto [4]): -0.174

MEIPPTNYPASRAALVAQNYINYQQGTPHRVFEVQKVKQASMEDIPGRGHKYHLKFAVEEIIQKQVKVNCTAEVLYPSTGQETAPEVNFTFEGETGKNPDEEDNTFYQRLKSMKEPLEAQNIPDNFGNVSPEMTLVLHLAWVACGYIIWQNSTEDTWYKMVKIQTVKQVQRNDDFIELDYTILLHNIASQEIIPWQMQVLWHPQYGTKVKHNSRLPKEVQLE [LXN]
solubility in G1/S (log2) (HeLa Kyoto [1]): 0.224 | thermal stability score (HeLa Kyoto [2]; [5]): 0.745 | thermal stability score (HeLa Kyoto [2]; cell cycle stage: mitosis): 0.0486 | melting temperature (HeLa Kyoto [3]; cell cycle stage: G1/S): 51.9 °C | melting temperature (HeLa Kyoto [3]; cell cycle stage: mitosis): 52.3 °C | solubility change mitosis (log2) (HeLa Kyoto [4]): -0.098

MEKIPVSAFLLLVALSYTLARDTTVKPGAKKDTKDSRPKLPQTLSRGWGDQLIWTQTYEEALYKSKTSNKPLMIIHHLDECPHSQALKKVFAENKEIQKLAEQFVLLNLVYETTDKHLSPDGQYVPRIMFVDPSLTVRADITGRYSNRLYAYEPADTALLLDNMKKALKLLKTEL [AGR2]
solubility in G1/S (log2) (HeLa Kyoto [1]): 0.49 | thermal stability score (HeLa Kyoto [2]; [5]): 0.575 | thermal stability score (HeLa Kyoto [2]; cell cycle stage: mitosis): -1.24 | melting temperature (HeLa Kyoto [3]; cell cycle stage: G1/S): 53.8 °C | melting temperature (HeLa Kyoto [3]; cell cycle stage: mitosis): 53.4 °C | solubility change mitosis (log2) (HeLa Kyoto [4]): 0.3

MEKRETFVQAVSKELVGEFLQFVQLDKEASDPFSLNELLDELSRKQKEELWQRLKNLLTDVLLESPVDGWQVVEAQGEDNMETEHGSKMRKSIEIIYAITSVILASVSVINESENYEALLECVIILNGILYALPESERKLQSSIQDLCVTWWEKGLPAKEDTGKTAFVMLLRRSLETKTGADVCRLWRIHQALYCFDYDLEESGEIKDMLLECFININYIKKEEGRRFLSCLFNWNINFIKMIHGTIKNQLQGLQKSLMVYIAEIYFRAWKKASGKILEAIENDCIQDFMFHGIHLPRRSPVHSKVREVLSYFHHQKKVRQGVEEMLYRLYKPILWRGLKARNSEVRSNAALLFVEAFPIRDPNLHAIEMDSEIQKQFEELYSLLEDPYPMVRSTGILGVCKITSKYWEMMPPTILIDLLKKVTGELAFDTSSADVRCSVFKCLPMILDNKLSHPLLEQLLPALRYSLHDNSEKVRVAFVDMLLKIKAVRAAKFWKICPMEHILVRLETDSRPVSRRLVSLIFNSFLPVNQPEEVWCERCVTLVQMNHAAARRFYQYAHEHTACTNIAKLIHVIRHCLNACIQRAVREPPEDEEEEDGREKENVTVLDKTLSVNDVACMAGLLEIIVILWKSIDRSMENNKEAKLYTINKFASVLPEYLKVFKDDRCKIPLFMLMSFMPASAVPPFSCGVISTLRSREEGAVDKSYCTLLDCLCSWGQVGHILELVDNWLPTEHAQAKSNTASKGRVQIHDTRPVKPELALVYIEYLLTHPKNRECLLSAPRKKLNHLLKALETSKADLESLLQTPGGKPRGFSEAAAPRAFGLHCRLSIHLQHKFCSEGKVYLSMLEDTGFWLESKILSFIQDQEEDYLKLHRVIYQQIIQTYLTVCKDVVMVGLGDHQFQMQLLQRSLGIMQTVKGFFYVSLLLDILKEITGSSLIQKTDSDEEVAMLLDTVQKVFQKMLECIARSFRKQPEEGLRLLYSVQRPLHEFITAVQSRHTDTPVHRGVLSTLIAGPVVEISHQLRKVSDVEELTPPEHLSDLPPFSRCLIGIIIKSSNVVRSFLDELKACVASNDIEGIVCLTAAVHIILVINAGKHKSSKVREVAATVHRKLKTFMEITLEEDSIERFLYESSSRTLGELLNS [NCAPG2]
solubility in G1/S (log2) (HeLa Kyoto [1]): -0.313 | thermal stability score (HeLa Kyoto [2]; [5]): 0.33 | thermal stability score (HeLa Kyoto [2]; cell cycle stage: mitosis): 0.687 | melting temperature (HeLa Kyoto [3]; cell cycle stage: G1/S): 49.1 °C | melting temperature (HeLa Kyoto [3]; cell cycle stage: mitosis): 48.1 °C | solubility change mitosis (log2) (HeLa Kyoto [4]): -0.0274
